Reference: patent US20190060366A1, “HIGHLY ENGRAFTABLE HEMATOPOIETIC STEM CELLS” (President and Fellows of Harvard College, priority 2016, published 2019)

Assays:
[1] = test system: peripheral blood mononuclear cells (PBMCs); assay: Limiting dilution competitive transplants and secondary transplants of mobilized grafts; assay type: in vivo; conditions: secondarily transplanted mice; n=16 mice/group, P<0.01
CD34+ cells = conditions: cited from earlier work

B1: G-CSF: hematopoietic growth factor used clinically to mobilize HSC and HPC; comparator regimen (protein, UniProt P09919 31-207, looked up)
Granulocyte …: TPLGPASSLPQSFLLKCLEQVRKIQGDGAALQEKLVSECATYKLCHPEELVLLGHSLGIPWAPLSSCPSQALQLAGCLSQLHSGLFLYQGLLQALEGISPELGPTLDTLQLDVADFATTIWQQMEELGMAPALQPTQGAMPAFASAFQRRAGGVLVASHLQSFLEVSYRVLRHLAQP
[1]
  competitiveness of graft as measured by contribution to chimerism: remained static
CD34+ cells; autologous transplantation patients
  patients that fail to mobilize an optimal CD34+ cell dose for autologous transplantation: Up to 60%
CD34+ cells; normal, healthy donors
  poor mobilization in response to G-CSF, share of normal, healthy donors: 15%
